Measurements as given in US20210102195A1 (TWIST BIOSCIENCE, published 2021).
Positions count from the first letter of the chain named.

T1: CRTH2R (UniProt Q9Y5Y4 1-395, limits assumed)
T1 sequence (looked up): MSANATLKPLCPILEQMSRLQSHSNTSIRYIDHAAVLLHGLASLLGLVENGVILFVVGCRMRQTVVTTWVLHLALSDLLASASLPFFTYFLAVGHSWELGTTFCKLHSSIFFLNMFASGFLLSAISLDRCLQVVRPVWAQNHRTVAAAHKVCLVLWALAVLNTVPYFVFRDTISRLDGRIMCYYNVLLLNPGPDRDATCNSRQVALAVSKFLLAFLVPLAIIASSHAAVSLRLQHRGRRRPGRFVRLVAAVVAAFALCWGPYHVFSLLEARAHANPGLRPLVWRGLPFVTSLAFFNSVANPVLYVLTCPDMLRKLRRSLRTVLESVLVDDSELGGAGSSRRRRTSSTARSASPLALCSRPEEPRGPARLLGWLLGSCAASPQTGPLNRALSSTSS

B1: CRTH2-24 (antibody, V domains shown)
VH: QVQLVQSGAEVKKPGSSVKVSCKASGGSFSNYGISWVRQAPGQGLEWMGGIIPLIGTANYAQKFQGRVTITADESTSTAYMELSSLRSEDTAVYYCARDMYYDFTLGPQSIGPLGEVVPADDAFDIWGQGTLVTVSS
VL: QSVLTQPPSVSAAPGQKVTISCSGSSSNIGNNFVSWYQQLPGTAPKLLIYDNIQRPSGIPDRFSGSKSGTSATLGITGLQTGDEADYYCGTWDTSLSAVVFGGGTKLTVLR
B2: CRTH2-15 (antibody, V domains shown)
VH: QVQLVQSGAEVKKPGSSVKVSCKASGGTFSTYAIDWVRQAPGQGLEWMGGIIPLFGSPNYAQKFQGRVTITADESTSTAYMELSSLRSEDTAVYYCARANQHFFLYEGTSSSWLHVGHARYGYHYYGMDVWGQGTLVTVSS
VL: QSVLTQPPSVSAAPGQKVTISCSGSGSNIGSNYVSWYQQLPGTAPKLLIYDNIRRPSGIPDRFSGSKSGTSATLGITGLQTGDEADYYCAAWDTRLSAGVFGGGTKLTVL
notes: CRTH2R IgG
B3: CRTH2-19 (antibody, V domains shown)
VH: QVQLVQSGAEVKKPGSSVKVSCKASGGTFSSHAINWVRQAPGQGLEWMGRIIPIVGTTTYAQKFQGRVTITADESTSTAYMELSSLRSEDTAVYYCARDMYYDFDYFGLTLTGDRNDDEVVPADDAFDIWGQGTLVTVSS
VL: QSALTQPASVSGSPGQSITISCTGTSSDVGGYDYVTWYQQHPGKAPKLMIYDVDTRPSGVSNRFSGSKSGNTASLTISGLQAEDEADYYCSSYTTSTSYVFGGGTKLTVL
notes: CRTH2R IgG
B4: CRTH2-45 (antibody)
VH: QVQLVESGGGVVQPGRSLRLSCAASGFTFSHYAMHWVRQAPGKGLEWVADISHEGSNKYYADSVKGRFTISRDNSKNTLYLQMNSLRAEDTAVYYCARDGRGSLPRPKGGPTSGGGFSTNIGYGFVVQSYDSSEDSGGAFDIWGQGTLVTVSS
VL: QSVLTQPPSVSAAPGQKVTISCSGTSSNIENNYVSWYQQLPGTAPKLLIYDNVKRPSGIPDRFSGSKSGTSATLGITGLQTGDEADYYCGTWDNTVSAPWVFGGGTKLTVL
notes: CRTH2R IgG
B5: CRTH2-42 (antibody)
VH: QVQLVESGGGVVQPGRSLRLSCAASGFAFSSYAMHWVRQAPGKGLEWVAVISYEGSNEYYADSVKGRFTISRDNSKNTLYLQMNSLRAEDTAVYYCARDLRELECEEWTVLQYGKFHMRWAESGEGSLSRGPCVDPRGVAGSFDVWGQGTLVTVSS
VL: QSALTQPASVSGSPGQSITISCTGTSSDVGGYRYVSWYQQHPGKAPKLMIYNVNYRPSGVSNRFSGSKSGNTASLTISGLQAEDEADYYCSSYRSSSTLGVFGGGTKLTVL
B6: CRTH2-74 (antibody)
VH: QVQLVESGGGVVQPGRSLRLSCAASGFSFSEYGIHWVRQAPGKGLEWVAVISYEGSNEYYADSVKGRFTISRDNSKNTLYLQMNSLRAEDTAVYYCARANQHFGPVAGGATPSEEPGSQLTRAELGWDAPPGQESLADELLQLGTEHGYHYYGMDVWGQGTLVTVSS
VL: QSVLTQPPSVSAAPGQKVTISCSGSTSNIGKNYVSWYQQLPGTAPKLLIYDDDERPSGIPDRFSGSMSGTSATLGITGLQTGDEADYYCEAWDADLSGAVFGGGTKLTVL
notes: CRTH2R IgG
B7: CRTH2-28 (antibody, V domains shown)
VH: QVQLVQSGAEVKKPGSSVNVSCKASGGTFSDYAFSWVRQAPGQGLEWMGAIIPFFGTVNYAQKFQGRVTITADESTSTAYMELSSLRSEDTAVYYCARDMYYDFATGTGGPEDDLYPQGELNDGYRIEVVPADDAFDIWGQGTLVTVSS
VL: B2 VL with G26I, S31K, N52D, I53H, R54K, A91T, T94R, R95G, G99A
B8: CRTH2-60 (antibody, V domains shown)
VH: QVQLVQSGAEVKKPGSSVKVSCKASGGTFKNYAINWVRQAPGQGLEWMGAIIPKFGAANYAQKFQGRVTITADESTSTAYMELSSLRSEDTAVYYCARANQHFSAVRGLAFGYGYRIGGYHYYGMDVWGQGTLVTVSS
VL: QSVLTQPPSVSAAPGQKVTISCSGSTSNIGINYVSWYQQLPGTAPKLLIYENRKRPSGIPDRFSGSKSGTSATLGITGLQTGDEADYYCATWDASLKNLVFGGGTKLTVL
B9: CRTH2-8 (antibody, V domains shown)
VH: QVQLVQSGAEVKKPGSSVKVSCKASGGTFTDYAISWVRQAPGQGLEWMGGIIPFFGSPNYAQKFQGRVTITADESTSTAYMELSSLRSEDTAVYYCARDMYYDFAAGLEGTITEVFDEEGHQGGTEVVPADDAFDIWGQGTLVTVSS
VL: B2 VL with G26S, S31K, I53N, R54Q, A90G, A91T, R95S, S97T, A98S, G99V
notes: CRTH2R IgG
B10: CRTH2-70 (antibody, V domains shown)
VH: QVQLVQSGAEVKKPGSSVKVSCKASGGTFSNHAIIWVRQAPGQGLEWMGGIIPIFGTPSYAQKFQGRVTITADESTSTAYMELSSLRSEDTAVYYCARDMYYDFDVISAGVVGAGNPEVVPADDAFDIWGQGTLVTVSS
VL: QSVLTQPPSVSAAPGQKVTISCSGSTSNIGNNFVSWYQQLPGTAPKLLIYDNEKRPSGIPDRFSGSKSGTSATLGITGLQTGDEADYYCGTWDERQTDESYVFGGGTKLTVL
B11: CRTH2 66 (antibody)
heavy chain (variable domain given): QVQLVESGGGVVQPGRSLRLSCAASGFDFSGYGMHWVRQAPGKGLEWVAVISYEGSNKFYADSVKGRFTISRDNSKNTLYLQMNSLRAEDTAVYYCARDLRELECEEWTIEVHGQEFAVHQDRGGVFSRGPCVDPRGVAGSFDVWGQGTLVTVSS
light chain (variable domain given): EIVMTQSPATLSVSPGERATLSCRASQGVGSNLAWYQQKPGQAPRLLIYRTSIRATGIPARFSGSGSGTEFTLTISSLQSEDFAVYYCQQYYSWPPLTFGGGTKVEIK
B12: CRTH2 57 (antibody, V domains shown)
VH: QVQLVQSGAEVKKPGSSVKVSCKASGGTFSSYAMSWVRQAPGQGLEWMGGIIPLFGTTDYAQKFQGRVTITADESTSTAYMELSSLRSEDTAVYYCARANQHFVKIQGAPVSTPVPGFGTTGYHYYGMDVWGQGTLVTVSS
VL: B2 VL with G26S, G30E, S31D, I53F, R54K, A90G, A91T, R95S, G99A, V100L
B13: CRTH2 39 (antibody, V domains shown)
VH: QVQLVQSGAEVKKPGSSVKVSCKASVDTFSRYSISWVRQAPGQGLEWMGGIIPVFDTTNYAQKFQGRVTITADESTSTAYMELSSLRSEDTAVYYCARDMYYDFGVILGGTAVGTNNGSANEVVPADDAFDIWGQGTLVTVSS
VL: QSVLTQPPSVSAAPGQKVTISCSGSSSNIGDNDVSWYQQLPGTAPKLLIYDDDKRPSGIPDRFSGSKSGTSATLGITGLQTGDEADYYCASWDTSLSGGYVFGGGTKLTVL
B14: CRTH2 35 (antibody, V domains shown)
VH: QVQLVQSGAEVKKPGSSVKVSCKASGGTFRSYAISWVRQAPGQGLEWMGGIIPISGTTNYAQKFQGRVTITADESTSTAYMELSSLRSEDTAVYYCARANQHFTRIFGNYQIYFGHFGYHYYGMDVWGQGTLVTVSS
VL: B5 VL with V29I, R33E, Y34F, N52G, N54S, Y55R, S91G, R94T, L99P, G100Y

Target: T1, CRTH2R
Assay: cell-based or functional assay

| antagonist activity in PGD2-induced cAMP assay at 33 nM IgG [%] | IC50 fold difference of the PGD2 dose response (cAMP) with 100 nM IgG [fold] | Binder |
| --- | --- | --- |
| > 20 | – | B1 |
| > 20 | – | B2 |
| > 20 | – | B3 |
| > 20 | – | B4 |
| > 20 | > 2 | B5 |
| > 20 | – | B6 |
| > 20 | – | B7 |
| > 20 | – | B8 |
| > 20 | – | B9 |
| > 20 | – | B10 |

Target: T1, CRTH2R
Assay: flow cytometry (MFI), CHO CRTH2R-positive cells against parental CHO cells, 3-fold titration from 100 nM; grey = CRTH2R cells, black = parental cells (no legend on the panel)
Protocol: Cell binding of anti-CRTH2R antibodies was determined by testing on CHO CRTH2R-positive cells (GFP+) and parental CHO cells (GFP−), comparing parental negative and target positive cells to rule out false-positives. Antibodies as listed in Table 14A were titrated starting at 100 nM (15 ug/mL) with 3-fold titrations, for a total of 8 points. Two antibodies (gPCR-51 and gPCR-52) were used as a positive control.

| EC50 [nM] | Binder |
| --- | --- |
| 3.95 | B11 |
| 73.8 | B2 |
| 158 | B12 |
| 16.7 | B3 |
| 23.2 | B4 |
| 19 | B13 |
| 12.6 | B14 |
| 8.61 | B6 |
| 135 | B9 |
